Patent US20130217122A1, “Expansion of Interferon-Gamma-Producing T-Cells Using Glypican-3 Peptide Library” (The Trustees of the University of Pennsylvania, priority 2012, published 2013)

Biological target: T1, human HLA-A2.1 on T2 cells (human)
T1 construct: whole, on cells; Empty or peptide-receptive HLA-A2.1 on TAP-deficient T2 cells; also called HLA-A*0201; class I MHC molecules
Experiment: T2 binding assay (HLA-A2 on T2 cells, flow cytometry)

B1: Glypican-3 136-145 (SLTPQAFEFV) (peptide)
peptide: SLTPQAFEFV
notes: Synthetic 10 mer of human glypican-3 (NP-004475); also called GPC3 136-145; GPC3136-145
binding result: binds
